The numbers were not newly measured in article PMC9028781, which cites them from elsewhere.

For data set [1], the target named is YopB (nanodisc-embedded) (Yersinia pestis) (UniProt Q06114).
Data set [2] concerns the target Substance P (Homo sapiens) (UniProt P20366).

Chain of Substance P (Homo sapiens) (P20366 whole entry, looked up): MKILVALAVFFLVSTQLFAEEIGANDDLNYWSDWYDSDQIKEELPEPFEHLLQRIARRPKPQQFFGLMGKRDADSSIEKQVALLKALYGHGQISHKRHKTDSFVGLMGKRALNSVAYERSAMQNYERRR
Chain of YopB (nanodisc-embedded) (Yersinia pestis) (Q06114 whole entry): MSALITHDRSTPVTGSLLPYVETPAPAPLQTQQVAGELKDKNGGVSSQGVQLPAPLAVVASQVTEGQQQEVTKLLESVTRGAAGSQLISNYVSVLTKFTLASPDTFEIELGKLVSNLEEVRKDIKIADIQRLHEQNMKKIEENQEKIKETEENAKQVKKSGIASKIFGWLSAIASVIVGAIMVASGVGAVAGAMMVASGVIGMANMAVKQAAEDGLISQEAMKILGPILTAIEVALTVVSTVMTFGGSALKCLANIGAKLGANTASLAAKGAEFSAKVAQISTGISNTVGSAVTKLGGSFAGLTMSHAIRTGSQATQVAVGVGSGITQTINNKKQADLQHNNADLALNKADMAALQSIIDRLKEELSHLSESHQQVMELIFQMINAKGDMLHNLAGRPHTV
Chain of Neurokinin-1 receptor (NK1R, nanodisc-embedded) (P25103 whole entry): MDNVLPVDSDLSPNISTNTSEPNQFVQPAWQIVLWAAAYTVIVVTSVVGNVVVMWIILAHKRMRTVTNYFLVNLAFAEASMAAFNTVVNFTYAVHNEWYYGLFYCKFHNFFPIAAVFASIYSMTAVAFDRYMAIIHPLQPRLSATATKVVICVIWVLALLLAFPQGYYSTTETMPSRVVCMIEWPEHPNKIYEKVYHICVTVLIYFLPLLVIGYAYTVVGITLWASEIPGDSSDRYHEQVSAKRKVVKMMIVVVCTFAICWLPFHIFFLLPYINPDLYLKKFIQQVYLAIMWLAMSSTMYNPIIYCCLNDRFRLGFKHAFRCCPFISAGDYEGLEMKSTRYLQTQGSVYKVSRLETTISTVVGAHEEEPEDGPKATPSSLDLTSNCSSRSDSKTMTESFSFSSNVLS
Chain of LcrV-EGFP (P0C7U7 whole entry): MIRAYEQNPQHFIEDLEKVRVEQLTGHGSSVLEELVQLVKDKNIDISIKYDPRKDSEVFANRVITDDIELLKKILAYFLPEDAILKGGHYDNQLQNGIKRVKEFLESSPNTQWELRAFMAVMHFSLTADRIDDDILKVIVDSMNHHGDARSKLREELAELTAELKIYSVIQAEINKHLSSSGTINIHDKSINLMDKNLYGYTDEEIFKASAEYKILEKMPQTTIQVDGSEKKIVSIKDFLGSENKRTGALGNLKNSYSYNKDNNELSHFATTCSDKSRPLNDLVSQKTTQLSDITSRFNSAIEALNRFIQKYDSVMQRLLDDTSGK

The term Kd denotes the equilibrium constant for the complex coming apart. As for LcrV-EGFP (from UniProt P0C7U7), in data set [1], the Kd is 20 nM.

As for “Neurokinin-1 receptor (NK1R, nanodisc-embedded) (from UniProt P25103)”, the Kd in data set [2] is 83 nM.
